Test results published in paper PMC8902471.

Assays:
Test in all cases: EMSA
Ets-1 ΔN301 MT1 = target: T1, Ets-1 ΔN301 MT1 (Mus musculus (murine), UniProt P27577 301-440, L337A;W338A)
T1 sequence: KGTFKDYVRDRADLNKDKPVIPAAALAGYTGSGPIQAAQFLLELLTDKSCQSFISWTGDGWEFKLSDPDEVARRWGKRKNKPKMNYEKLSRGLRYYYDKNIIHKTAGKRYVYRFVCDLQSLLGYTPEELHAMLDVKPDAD

Ets-1 ΔN301 MT2 = target: T2, Ets-1 ΔN301 MT2 (Mus musculus (murine), UniProt P27577 301-440, L393A;Y396A)
T2 sequence: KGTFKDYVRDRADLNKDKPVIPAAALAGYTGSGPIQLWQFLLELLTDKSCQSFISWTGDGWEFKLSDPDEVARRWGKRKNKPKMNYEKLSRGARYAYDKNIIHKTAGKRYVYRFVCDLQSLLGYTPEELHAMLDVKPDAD

Ets-1 ΔN301 MT4 = target: T3, Ets-1 ΔN301 MT4 (Mus musculus (murine), UniProt P27577 301-440, W338A)
T3 sequence: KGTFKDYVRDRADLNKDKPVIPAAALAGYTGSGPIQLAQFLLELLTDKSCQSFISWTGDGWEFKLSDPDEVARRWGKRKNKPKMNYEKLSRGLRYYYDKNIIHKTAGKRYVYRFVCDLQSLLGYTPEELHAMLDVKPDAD

Ets-1 ΔN301 MT3 = target: T4, Ets-1 ΔN301 MT3 (Mus musculus (murine), UniProt P27577 301-440, L337A)
T4 sequence: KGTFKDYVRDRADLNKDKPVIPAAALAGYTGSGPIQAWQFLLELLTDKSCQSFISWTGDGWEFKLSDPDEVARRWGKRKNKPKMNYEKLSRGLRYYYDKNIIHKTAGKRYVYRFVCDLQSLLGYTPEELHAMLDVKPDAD

Measured: binding result

B1: 27-bp high-affinity ETS site DNA (dsDNA)
DNA 1: TCGACGGCCAAGCCGGAAGTGAGTGCC
DNA 2: TCGAGGCACTCACTTCCGGCTTGGCCG
no binding: all assays above
